From the nanobody polyreactivity screen of Harvey et al. (2022)

Assay: yeast display, Sf9 membrane polyspecificity reagent, FACS + sequencing; frameworks hold sequencing errors
Summary of the method: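 Galactose induction of a Saccharomyces cerevisiae BJ5465 synthetic nanobody display library ran 36–48 hours. The cells were then stained for 1 hour at 4 °C with 10% biotinylated, detergent-solubilized Sf9 membrane reagent, pulled down on streptavidin microbeads and FACS-sorted into low and high (top ~1%) gates on expression and reagent-binding fluorescence. Labels for polyreactivity follow the gate of origin.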

| Sequence | polyreactivity (PSR sort gate) |
| --- | --- |
| QVQLGESGGGLVQAGGSLRLSCAASGSTFARYAMGWYRQAPGKERELVAVIRSGGSRNYADSVKGRFTISRDNAKNTVYLQMNSLKPEDTAGAADQWTIHRWATYGYWGQGTQVTVSS | low polyreactivity |
| QVQLVESGGGLVQAGGSLRLSCAASGSIFYSYAMGWYRQAPGKARELVATISWAGGRTNYADSVKGRFTISRDNAKNTEYLQMNSLKPEDTAVSYCNKPFPYYPDGPNGYDYWGQGTQVTVSS | low polyreactivity |
| QVQLVESGGGLVQAGGSIRLICAASGRNYAVYAMGWYRQAPGKERELVAAITYGGGRTYYADSVKGRFTISRDNEKNTVYLKLNSMNPEDTAVYFCAADYFGTDYDYWGQGTHVTVSS | low polyreactivity |
| QVQLVESGGGLVQAGGSLRLSCAASGITFSRNPMGWYRQAPGKEWELVAAISWSGGSTYYADSVKGRYTISRDNAKNTVYLQMNSLKPEDTAVYYCNVGRRERLEGGYWGQGTQVTVSS | high polyreactivity |
| QVQHVESGGGLVQAGGSLRLSCAASGSTFLANTMGWYRQAHGKERELVAAITRRGGSTRYADSVKGRFTISRDNAKNTVYLQMNSLKPEDTAVYYCAAPWFRDTRGYSLYDYWGQGTQVTVSS | high polyreactivity |
| QVQLVESGGGLVQAGGSLRLSCAASGSTFPLYAMGWYRQAPGKEREFVAAIRWIGGSTYYADSVKGRFTISRDNAKNTVYLQMNSLKPEDTAVYYCAADYVVSAFDYWGQGTQVTVSS | low polyreactivity |
| QVQLVESGGGLDQAGGSLRLSCAASGSTFYYNTMGWYRQAPGKERELVAAISWRGVSTYYADSVKGRFTISRDNAKNTVYLQMNSLKPEDTAVYYCNAVHHYPEHIGGGYWGQGTQVTVSS | low polyreactivity |
| QVQLVESGGGLVQAGGSLRLSCAASGGNFERNAMGWYRQAPGKERELVAAITGSGGRTYYADSVKGRFTISRDNAKITVYLQMNSLKPEDTAVYFCAAVPWWKYKYWGQGTQVTVSS | high polyreactivity |
| QVQLVESGGGLVQAGGSLRLSCAASGSIFSPYAMGWYRQAPGKERELVAGISKSAGTTFYADSVKGRFTISRDNAKNTVYLQMNSLKPEDTAVYYCAADYYYPAWYLSDYWGQGTQVTVSS | low polyreactivity |
| QVQLVASGGGLLQAGGSLRLSCAASGIIFDRYTMGWYRQAPGKERELVASISDDDGSTYYADSVKGRFTISRDNAKNTVYLQMNSLTPEDTAVYYCKALSIIFDYWGQATQVTVSS | low polyreactivity |
| QVQLVESGGGLVQAGGSLRLICAASGSTYRYYAMGWSRQAPGKERELVAGITGSGGSTYYADSVKGRFTISRDNAKNTVYLQMNSLNPEDTAVYDCATKLRRWRFYAAYDYWGQGTQVTVSS | high polyreactivity |
| QVQLVESGGGLVQAGGSLRLSCAASGRIFSAYAMGWYRQAPGKERELVAAISKRGGRTYYADSVKGRFTISRDNAKNTVYLQMNSLKPEDTAVYYCNKRYHDGHELDYWGQGTQVTVSS | high polyreactivity |
| QVQLVESGGVLVQAGGSLRLSCAASGSIFGLYAMGWYRQAPGKERELVAAISRRSVSTYYADSVKGRFTISRDNAKNTVYLQMNSLKPEDTAVYYCAAVTYPYLRSQKGYDGYGYWGHGTQVTVSS | high polyreactivity |
| QVQLVESGGGLVQAGGSHRLSCAASGTFKAYAMGWYRQAPGKERELVAVISNGGSTYYADSVKGRFTISRDNAKNTVYLQMNSLKPEDTAVYYCAARRGWYAYRFLSGSRLHYYWGQGTQVTVSS | high polyreactivity |
| QVQLVESGGGLVQAGGSLRLICAASGRIFVKYAIGWYRQAPGKERELVASITSGGRTNYADSVKGRFTISPDIAKNTVYLQMNSLKPEDTAVYYCAAVWRTASTQYYYWGQGTQVTVSS | high polyreactivity |
| QVQLEESGGGLVQAGGTLRLSCAASVGIFNYYTMGWYREAPGKERELVAAITRGGSTYYADSVKGRFTISRDNAKNTVYLQMNSLKPEDTAVYYCAAVWRRYDKSPLEGSWGQGTQVTLSS | high polyreactivity |

| Sequence | polyreactivity (PSR sort gate) |
| --- | --- |
| QVQLVESGGALVQARGSLRLSCAASGRIFGGNAMGWYRHAPGKERDLVADISYGGGSTNYADSVKGRFTISRDNAKNTVYLQMNSLKPADTAVYYCARDAWNTDGAYIGGDYDYWGQGTKVTVSS | low polyreactivity |
| QVHLVESGGGLVQAGGSLRLSCAAYGRIFPLYTMGWYRQAPGKEREFVAAISRTGGRTYYADSVKGRFTISRDNAKNTVYLQMNSLKPEDTAVYYCAAPYFGKRQIREYYWGQGTQVTVSS | high polyreactivity |
| QVQLVESRGGLVQAGGSLRLSCAASGYTFDWYTMGWYRQAPGKERELVAAISASGVRTYYADSVKGRFTISRDNAKNTVYLQMNSLKPEDTAVYYCYRVYSTSRITQYEFDYWGLGTQVTVSS | low polyreactivity |
| QGQLVESGGGLVQAGGSLRLTCPPSGFTFRTNAMGWYRQAPGKERELVAAISYSGGSTYYADSVKGRFTISRDNAKNTVYFQMNSLKPEDTAVSYCAARAAGSQHDYWGQGSQVTVSS | high polyreactivity |
| QVQLVESGGGIVQAGGSLRLSCAASGSIFEPNAMGWYRQAPGQEREFVAAISGSGGSTYYADSVKGRFTSSRDNAKNTVYLQRNSLKPEDTAVYYCNALYLRTTPQDYDYWGQGTQVTVSS | high polyreactivity |
| QVQLVESGGGLVQAGGSLRVSCGASGRTFLFYAMGWYRQAPGKERELVASITGRGGRTSYADSEKGRFTISRDNAKNTVYLQKNSLKPEDTAVYYCAARNPYTSTYYDWGQGTQETVSS | high polyreactivity |
| QVQLGESGGGLVQAGGSLRLSCAASGFTFQEYAMGWYRQAPGKDRELVAAITSGTTTNYADSVKGRFTISRDNAKNTVYLQMNSLKPEDTAVYYCNVRRQSGRYRVYEYDYWGQGTQVTVSS | low polyreactivity |
| QVQLVESGGGLVQAGGSLRLSCAASGRTFARYAMGWYRQAPGKERELVAVISRTGSTYYADSVKGRFTISRDNAKNTVYLQMNSLKPEDTAVYYCATVYYYLAYGWSYSDMDYWGQGTQVTVSS | high polyreactivity |
| QVQLVESGGGLVQAGGSLRLSCAASGRIFLYYAMGWYRQAPGKERELVAAITSSGGDTYYADSVKGRFTISRDNANNTVYLQMYSLKPEDTAVYYCAAYSWWNEYDYWGQGTQVTVSS | high polyreactivity |
| QVQLVESGGGLVQAGGSLRLSCAASGRIFGGNAMGWFRQAPGKERELVAASTTRGGSTSADSVKGRFTISRDNAKNTVYLHMNSLKPEATAVYYCAVARSSHGGPRYLVRTYGYWGQATQVTVSS | low polyreactivity |
| QVQLVESGGGLVQAGGSLRLSCAASGRIFYYYTMGWYRQAPGKERELVADISRGGSTYYADSVKGRFTISRDNAKNTVYLQMNSLKPEDTAVYYCNAVTRIQTSYPSNWGMMDYWGQGTQVTVSS | low polyreactivity |
| QVQLVESGGGLVQAGGSLRLSCAASGSIFGRYGAMGWYRQAPGKERELVAAIRTSGVSTYYADSVKGRFTISRDNAKNTVYLQMNSLKPEDTAVYYCAKGYNSYNLGKYGYWGQGTQVTVSS | low polyreactivity |
| QLQLEESGGGLVQAGGSLRLSCAASGRTFRYYSMGWYRHAPGKEREMVAAISSSGDRTYYADSVKGRFTISRDNATNTVYIQMNSLKPEDTAVYYCANVPYYSRPHDYWGQGTQVTVSS | high polyreactivity |
| QVQLVESGGGLFQAGGSLRLSCAASGSTFPYNAMGWYRQAPGKERELVAAITWRAGRTYYADSVKGRFTISRDNAKNTVYLQMNSLKPEDTAVYSCAKSYQRGVNHYEYWGQGTQVTVSS | high polyreactivity |
| QVQLVESGGGLVQAGGSLRLSCAASGRTFPFNAMGWYRQAPGKERELVAGISSGGRTNYADSVKGRFTISRDNAKNTVYLQMNSMQPEDTAVYYCAARYQPSRAARWTLDYWGQGTQVTVSS | high polyreactivity |
